Measured values reported in patent publication US7919104B2, “Functional epitopes of Streptococcus pneumoniae PsaA antigen and uses thereof” (priority 2005, dated 2011).
Several values for one entry are separate records, joined by “and”; a condition that tells them apart may be missing. Identical values can stand only once. No end group written: not given here.

Experiments:
Detroit 562 cells [1] = experiment: Homologous competitive inhibition of adherence of rPsaA- or peptide-coated fluospheres to Detroit 562 cells; format: cell-based, human
Protocol: (§1) Carboxylate-modified fluorospheres (Molecular Probes™, […]) coated with either recombinant PsaA (rPsaA) or PsaA synthetic peptide (P4) were evaluated for their adherence to Detroit 562 NP cells. Four different batches of PsaA beads were generated by varying the concentration of the protein solution used to coat the beads (0.9 mg/ml, 0.53 mg/ml, 5.3 μg/ml and 0.53 μg/ml). P4 and Glycine control beads were generated by using a peptide solution (0.9 mg/ml). Protein concentrations were confirmed by the Bradford test (Sigma). PsaA and peptide beads were compared at similar inocula (1640±210 beads per well) in adherence and adherence competition assays (measured as mean fluorescent units (FU±SE)).
(§2) Homologous competitive inhibitions with 0.5 to 10 μg per well of rPsaA protein or 5 to 20 μg per well of each peptide were performed to determine the specificity of the adherence for rPsaA-coated fluospheres or for each of the three peptide-coated fluospheres. Heterologous competitive inhibitions with each peptide (10 μg per well) were performed to determine which peptide blocked the adherence of whole PsaA-coated fluospheres to the Detroit 562 cells. Absorption of PsaA-specific antibodies was performed by incubation (2 hours at ambient room temperature with rotation, 100 rpm) of 500 μl (1:8 dilution) of the serum 7051 with nitrocellulose strips (2.5×0.5 cm), previously impregnated with rPsaA protein (1.8 mg/ml) and allowed to dry at 37° C. for 1 hour. Strips were replaced every 2 hours for a total of 3 changes. All antibody absorptions were performed in PBS (10 mM, pH 7.2) supplemented with 1% (weight/volume) BSA as a non-specific blocker. Immunoglobulin G (IgG) concentrations (μg/ml) were measured as previously described (Tharpe, Romero-Steiner) after each absorption step to monitor the decline of anti-PsaA antibodies.

Detroit 562 cells [2] = experiment: Adherence of rPsaA- or peptide-coated fluospheres (beads) to Detroit 562 cells; format: cell-based, human; conditions: 3,100±500 fluospheres per well; 2 hour incubation
Protocol: as §1
Recombinant PsaA protein or synthetic peptides were covalently bound to carboxylate-modified FluoSpheres (Molecular Probes, Eugene, Oreg.) (505/515 nm range, yellow, 1 μm in diameter). […] The 2% fluosphere stock was vortexed for 2 minutes at full speed. A 250-μl aliquot was sonicated for 5 minutes to break clumps. The sonicated fluospheres were washed 3 times by centrifugation at 10,000 rpm for 10 minutes in 250 μl MES buffer, pH 6.0 (Molecular Probes). The negative charge in the carboxylate-modified fluospheres was activated by adding 50 μl of EDAC solution (100 mg/ml, Molecular Probes) to the washed fluospheres resuspended in 200 μl MES. The fluospheres were incubated for 30 minutes RT with gentle rotation. A 250-μl volume of rPsaA (1 mg/ml) or peptide (2 mg/ml) resuspended in MES buffer was added to each fluosphere pellet. Suboptimal concentrations of rPsaA (900, 530, 5.3 and 0.53 μg/ml) were also used to generate partially coated fluospheres. Peptides were dissolved as 1 mg in 50 μl of 10% acetic acid followed by addition of 450 μl of MES buffer, pH 6.0. The 500-μl fluosphere suspension was incubated in the dark over night at room temperature with horizontal rotation (150 rpm). The remaining reactive sites were blocked by addition of a 50-μl volume of 1 M solution of glycine, followed by a-30-minute incubation at room temperature with horizontal rotation. The fluosphere suspension was then washed with 500 μl PBS, 50 mM, pH 7.2-7.4 three times by centrifugation at 10,000 rpm for 10 minutes. The first supernatant of the first wash was saved for protein determinations using the microtiter microdilution method of Bradford (Bio-Rad Laboratories, Calif.). The labeled fluosphere pellet was resuspended in 500 μl of PBS, 50 mM, pH 7.2-7.4. Labeled fluospheres were stored in the dark in 100-μl aliquots at 4° C. for up to 4 months. The peptides were stored in powder form at 4° C. under Dryerite desiccant. The resuspended peptides were stored at 4° C. for 6 weeks and for long term storage at −70° C. Fluospheres were counted by limiting dilution using a fluorometer (FLX-600, BioTek) with 485/520 nm excitation/emission wavelength and comparison to a calibration curve previously generated against hemacytometer counts.
Confluent monolayers of Detroit 562 cells grown in 96-well tissue culture plates for 6 days were washed once with 130 μl/well of PBS buffer+0.5% BSA (Sigma cat #A2153, Fraction V purified by alcohol precipitation). The entire outer perimeter of the microtiter plate was not used for adherence assays due to edge effect and lack of confluent growth in these wells. An 80-μl volume per well of PBS buffer+1% BSA and 20 μl per well of diluted fluosphere suspension (to yield ˜3100±500 fluospheres in a 20-μl volume) were added to the washed monolayers. The diluted fluosphere suspension was sonicated for 3 minutes prior to addition to the center of the wells. […] The sides of the plates were then tapped gently to mix. […] Following incubation, plates were washed 5 times with 130 μL/well of PBS+0.5% BSA. The liquid was removed after each wash with a multi-channel aspirator (Costar) and moderate vacuum. The plate was allowed to dry before reading in the fluorometer (485/520 nm). […]

pneumococci = conditions: antibodies to the peptides; cited from earlier work
Detroit 562 cells [3] = experiment: Competitive inhibition of adherence of rPsaA-coated fluospheres to Detroit 562 cells; format: cell-based, human; conditions: for inhibition of rPsaA-fluosphere adherence, heterologous competition: peptide 10 μg/well
Protocol: as §1, §2

Pneumococci (Pnc) = experiment: Rabbit immunization with MAP of P4: serum inhibition of adherence of Pneumococci to Detroit 562 cells (anti Pneumococcal activity); format: in vivo, Streptococcus pneumoniae
Text: The MAPs consist of two arms, each consisting of SEQ ID NO:1 linked via lys or nle-lys to a resin.
Assessment of Serum Samples: • 1) Inhibition of adherence of P4 coated fluorescent beads to Detroit 562 cells (in vitro; tissue culture) to detect the presence of anti P4 antibodies in serum. • 2) Inhibition of adherence of PsaA coated fluorescent beads to Detroit 562 cells (in vitro; tissue culture) to detect the presence of anti PsaA antibodies in the serum. • 3) Inhibition of adherence of Pneumococci (Pnc) to Detroit 562 cells (in vitro; tissue culture) to detect the presence of anti Pnc antibodies in serum. Immunization with P4E—Analyses of Rabbit Sera for Anti P4 and Anti Pneumococcal (Pnc) Antibody: Animal 465

[4] = molecular target: T1, P4 coated fluorescent beads (Streptococcus pneumoniae serotype 4, UniProt P0A4G2, D258K/D259R); experiment: Rabbit immunization with MAP of P4: serum inhibition of adherence of P4 coated fluorescent beads to Detroit 562 cells (anti P4 activity); format: in vivo
T1 sequence (P0A4G2 251-278 D258K/D259R): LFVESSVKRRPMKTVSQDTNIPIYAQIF

[5] = homologous competitor 5.0 μg/well
[6] = homologous competitor 10 μg/well
[7] = homologous competitor 20 μg/well
[8] = rabbit serum 1:1000, Bleed # 1 (Day 28)
[9] = rabbit serum 1:1000, Bleed # 2 (Day 42)
[10] = rabbit serum 1:8000, Bleed # 1 (Day 28)
[11] = rabbit serum 1:8000, Bleed # 2 (Day 42)
[12] = rabbit serum 1:16000, Bleed # 2 (Day 42)
[13] = rabbit serum 1:32000, Bleed # 1 (Day 28)
[14] = rabbit serum 1:10, Bleed # 1 (Day 28)
[15] = rabbit serum 1:10, Bleed # 2 (Day 42)
[16] = rabbit serum 1:100, Bleed # 1 (Day 28)
[17] = rabbit serum 1:16000, Bleed # 1 (Day 28)
[18] = rabbit serum 1:32000, Bleed # 2 (Day 42)
[19] = rabbit serum 1:64000, Bleed # 1 (Day 28)
[20] = rabbit serum 1:64000, Bleed # 2 (Day 42)
[21] = rabbit serum 1:128000, Bleed # 1 (Day 28)
[22] = rabbit serum 1:128000, Bleed # 2 (Day 42)
[23] = rabbit serum 1:256000, Bleed # 1 (Day 28)
[24] = rabbit serum 1:256000, Bleed # 2 (Day 42)
[25] = rabbit serum 1:512000, Bleed # 1 (Day 28)
[26] = rabbit serum 1:512000, Bleed # 2 (Day 42)

Substance | percent reduction in adherence of homologous coated fluospheres (Detroit 562 cells [1]; [5]) [%] | percent reduction in adherence of homologous coated fluospheres (Detroit 562 cells [1]; [6]) [%] | percent reduction in adherence of homologous coated fluospheres (Detroit 562 cells [1]; [7]) [%] | mean adherence of coated fluospheres (mean FU±SE) (Detroit 562 cells [2]) | colonization in mice immunized with the peptides (pneumococci) | inhibition of rPsaA-fluosphere adherence, heterologous competition (Detroit 562 cells [3]) [%] | Anti Pneumococcal activity, % inhibition of adherence (% IA) (Pneumococci (Pnc); [8]) | Anti Pneumococcal activity, % inhibition of adherence (% IA) (Pneumococci (Pnc); [10]) | Anti Pneumococcal activity, % inhibition of adherence (% IA) (Pneumococci (Pnc); [11]) | Anti P4 activity, % inhibition of adherence (% IA) [4, 14] | Anti P4 activity, % inhibition of adherence (% IA) [4, 15] | Anti P4 activity, % inhibition of adherence (% IA) [4, 16] | Anti P4 activity, % inhibition of adherence (% IA) [4, 8] | Anti P4 activity, % inhibition of adherence (% IA) [4, 9] | Anti P4 activity, % inhibition of adherence (% IA) [4, 10] | Anti P4 activity, % inhibition of adherence (% IA) [4, 11] | Anti P4 activity, % inhibition of adherence (% IA) [4, 17] | Anti P4 activity, % inhibition of adherence (% IA) [4, 12] | Anti P4 activity, % inhibition of adherence (% IA) [4, 18] | Anti P4 activity, % inhibition of adherence (% IA) [4, 19] | also measured
LVRRFVHRRPHVE-SQ (LVRRFVHRRPHVESQ) [P3, synthetic peptide identified by phage display, reference compound] | −7.3 | 5.2 | 44.2 | 9,780±228 FU | reduce colonization | 75.2 |  |  |  |  |  |  |  |  |  |  |  |  |  |  | enhancement of the binding of rPsaA fluospheres (Detroit 562 cells [3]; unsaturated fluospheres (530 μg/ml of rPsaA), data not shown): < 2.5 fold
P4E2: Multi Antigenic Peptide (MAP) of P4: two arms, each SEQ ID NO:1, linked via lys or nle-lys to a resin (chain 1 LFVESSVKRRPMKTVSQDTNIPIYAQIF; chain 2 LFVESSVKRRPMKTVSQDTNIPIYAQIF; not fully specified; also: MAP: two identical arms on a Lys or Nle-Lys core) |  |  |  |  |  |  | 22% and 23% | 19% and 21% | 22% and 16% | 50% and 56% | 74% and 75% | 0% | 0% | 4% and 1% | 0% | 1% and 2% | 0% | 0% | 0% | 0% | Anti Pneumococcal activity, % inhibition of adherence (% IA) (Pneumococci (Pnc); [9]): 33% and 20%; Anti Pneumococcal activity, % inhibition of adherence (% IA) (Pneumococci (Pnc); [12]): 18% and 12%; Anti Pneumococcal activity, % inhibition of adherence (% IA) (Pneumococci (Pnc); [13]): 0%; Anti P4 activity, % inhibition of adherence (% IA) ([4]; rabbit serum 1:100, Bleed # 2 (Day 42)): 0% and 3%; Anti P4 activity, % inhibition of adherence (% IA) [4, 13]: 0%; Anti P4 activity, % inhibition of adherence (% IA) [4, 20]: 2% and 4%; Anti P4 activity, % inhibition of adherence (% IA) [4, 21]: 0%; Anti P4 activity, % inhibition of adherence (% IA) [4, 22]: 4% and 0%; Anti P4 activity, % inhibition of adherence (% IA) [4, 23]: 0%; Anti P4 activity, % inhibition of adherence (% IA) [4, 24]: 4% and 5%; Anti P4 activity, % inhibition of adherence (% IA) [4, 25]: 0%; Anti P4 activity, % inhibition of adherence (% IA) [4, 26]: 0%
P4E: Multi Antigenic Peptide (MAP) of P4: two arms, each SEQ ID NO:1, linked via lys or nle-lys to a resin (chain 1 LFVESSVKRRPMKTVSQDTNIPIYAQIF; chain 2 LFVESSVKRRPMKTVSQDTNIPIYAQIF; also: MAP: two P4 arms on a Lys or Nle-Lys core) |  |  |  |  |  |  | 24% and 38% | 23% and 34% | 13% and 21% | 39% and 46% | 43% and 48% | 32% and 29% | 33% and 41% | 9% and 12% | 6% and 9% | 5% and 4% | 12% and 15% | 7% and 1% | 9% and 5% | 22% and 21% | Anti Pneumococcal activity, % inhibition of adherence (% IA) (Pneumococci (Pnc); [17]): 25% and 27%; Anti Pneumococcal activity, % inhibition of adherence (% IA) (Pneumococci (Pnc); [18]): 14% and 16%; Anti P4 activity, % inhibition of adherence (% IA) [4, 20]: 6% and 3%; Anti P4 activity, % inhibition of adherence (% IA) [4, 21]: 10% and 15%; Anti P4 activity, % inhibition of adherence (% IA) [4, 22]: 5% and 9%; Anti P4 activity, % inhibition of adherence (% IA) [4, 23]: 5% and 7%; Anti P4 activity, % inhibition of adherence (% IA) [4, 24]: 0% and 3%; Anti P4 activity, % inhibition of adherence (% IA) [4, 25]: 5% and 7%; Anti P4 activity, % inhibition of adherence (% IA) [4, 26]: 6% and 3%
RSYQHDLRAYGFWRL [P2, synthetic peptide identified by phage display, reference compound] | 43.1 | 20.5 | 0.8 | 17,195±1,044 FU | reduce colonization | 62.2 |  |  |  |  |  |  |  |  |  |  |  |  |  |  | 
TVSRVPWTAWAFHGY [P1, synthetic peptide identified by phage display, reference compound] | 50.2 | 60.9 | 34.1 | 52,684±4,354 FU | reduce colonization | 88.1 |  |  |  |  |  |  |  |  |  |  |  |  |  |  | 
